Assay [1] deals with T1, 4H3907-bA.
T1 chain: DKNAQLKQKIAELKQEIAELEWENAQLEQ
As to the kind of experiment: two-hybrid library CCNG1.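 Note: natural log of median RNA to DNA barcode read ratio; higher means stronger binding.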

Assay [2] concerns the target T2, 4H3961-bA.
T2 chain: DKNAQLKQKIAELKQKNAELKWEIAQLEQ
As to the kind of experiment: two-hybrid library CCNG1.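 Note: natural log of median RNA to DNA barcode read ratio; higher means stronger binding.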 The conditions noted are these: mean of both orientations.

Assay [3] addresses T3, 4H1072-bA.
T3 chain: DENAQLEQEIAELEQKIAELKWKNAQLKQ
Nature of the assay: two-hybrid library CCNG1.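 Note: natural log of median RNA to DNA barcode read ratio; higher means stronger binding.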

Assay [4] has as its target T4, 4H2619-bA.
T4 chain: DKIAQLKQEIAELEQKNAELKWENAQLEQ
As to the kind of experiment: two-hybrid library CCNG1.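 Note: natural log of median RNA to DNA barcode read ratio; higher means stronger binding.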

The target in assay [5] is T5, 4H2745-bA.
T5 chain: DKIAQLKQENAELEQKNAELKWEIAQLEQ
Nature of the assay: two-hybrid library CCNG1.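 Note: natural log of median RNA to DNA barcode read ratio; higher means stronger binding.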

Assay [6] deals with T6, 4H470-bA.
T6 chain: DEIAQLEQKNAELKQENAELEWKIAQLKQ
As to the kind of experiment: two-hybrid library CCNG1.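 Note: natural log of median RNA to DNA barcode read ratio; higher means stronger binding.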

In assay [7] the target is T7, 4H363-bA.
T7 chain: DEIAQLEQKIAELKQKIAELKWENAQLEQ
As to the kind of experiment: two-hybrid library CCNG1.

Assay [8] concerns the target T8, 4H2568-bA.
T8 chain: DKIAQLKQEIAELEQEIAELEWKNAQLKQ
As to the kind of experiment: two-hybrid library CCNG1.

For assay [9], the target named is T9, 4H1046-bA.
T9 chain: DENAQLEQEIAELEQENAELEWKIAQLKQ
As to the kind of experiment: two-hybrid library CCNG1. The conditions noted are these: mean of both orientations.

The target in assay [10] is T10, 4H344-bA.
T10 chain: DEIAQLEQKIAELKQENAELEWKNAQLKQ
Nature of the assay: two-hybrid library CCNG1.

Assay [11] addresses T11, 4H2580-AA.
T11 chain: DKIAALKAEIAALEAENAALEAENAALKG
Nature of the assay: two-hybrid library CCmax.

Assay [12] concerns the target T12, 4H146-AA.
T12 chain: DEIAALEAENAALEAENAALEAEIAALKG
Nature of the assay: two-hybrid library CCmax. The settings on record: mean of both orientations.

Assay [13] deals with T13, 4H2283-AA.
T13 chain: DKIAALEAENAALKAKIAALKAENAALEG
As to the kind of experiment: two-hybrid library CCmax. The settings on record: mean of both orientations.

In assay [14] the target is T14, 4H1809-AA.
T14 chain: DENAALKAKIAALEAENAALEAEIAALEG
Nature of the assay: two-hybrid library CCmax. The settings on record: mean of both orientations.

The target in assay [15] is T15, 4H2713-AA.
T15 chain: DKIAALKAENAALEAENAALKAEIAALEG
Nature of the assay: two-hybrid library CCmax. The settings on record: mean of both orientations.

Assay [16] has as its target T16, 4H2991-AA.
T16 chain: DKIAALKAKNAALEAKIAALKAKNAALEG
Nature of the assay: two-hybrid library CCmax. The settings on record: mean of both orientations.

For assay [17], the target named is T17, 4H3066-AA.
T17 chain: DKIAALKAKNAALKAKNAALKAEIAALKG
As to the kind of experiment: two-hybrid library CCmax. The settings on record: mean of both orientations.

For assay [18], the target named is T18, 4H3029-AA.
T18 chain: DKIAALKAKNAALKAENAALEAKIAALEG
Nature of the assay: two-hybrid library CCmax. The settings on record: mean of both orientations.

Assay [19] concerns the target T19, 4H478-AA.
T19 chain: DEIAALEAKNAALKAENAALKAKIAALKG
Nature of the assay: two-hybrid library CCmax. The conditions noted are these: mean of both orientations.

Assay [20] addresses T20, 4H971-AA.
T20 chain: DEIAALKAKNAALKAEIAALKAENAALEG
Nature of the assay: two-hybrid library CCmax. The settings on record: mean of both orientations.

The target of assay [21] is T21, 4H3666-AA.
T21 chain: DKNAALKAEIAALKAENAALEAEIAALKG
Nature of the assay: two-hybrid library CCmax. The settings on record: mean of both orientations.

Assay [22] has as its target T22, 4H1109-AA.
T22 chain: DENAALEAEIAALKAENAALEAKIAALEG
Nature of the assay: two-hybrid library CCmax. The conditions noted are these: mean of both orientations.

For assay [23], the target named is T23, 4H3102-AA.
T23 chain: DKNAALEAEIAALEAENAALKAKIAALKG
As to the kind of experiment: two-hybrid library CCmax. The settings on record: mean of both orientations.

Assay [24] concerns the target T24, 4H1000-AA.
T24 chain: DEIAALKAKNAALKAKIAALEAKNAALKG
Nature of the assay: two-hybrid library CCmax.

Assay [25] deals with T25, 4H3121-AA.
T25 chain: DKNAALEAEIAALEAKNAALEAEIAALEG
As to the kind of experiment: two-hybrid library CCmax. The conditions noted are these: mean of both orientations.

The target of assay [26] is T26, 4H391-AA.
T26 chain: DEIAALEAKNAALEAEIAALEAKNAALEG
Nature of the assay: two-hybrid library CCmax. The conditions noted are these: mean of both orientations.

Assay [27] concerns the target T27, 4H1064-AA.
T27 chain: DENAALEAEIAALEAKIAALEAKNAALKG
As to the kind of experiment: two-hybrid library CCmax. The conditions noted are these: mean of both orientations.

Assay [28] deals with T28, 4H3417-AA.
T28 chain: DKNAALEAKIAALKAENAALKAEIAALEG
Nature of the assay: two-hybrid library CCmax. The conditions noted are these: mean of both orientations.

Assay [29] addresses T29, 4H1035-AA.
T29 chain: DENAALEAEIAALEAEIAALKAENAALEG
As to the kind of experiment: two-hybrid library CCmax. The settings on record: mean of both orientations.

Assay [30] deals with T30, 4H428-AA.
T30 chain: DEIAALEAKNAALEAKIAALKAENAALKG
As to the kind of experiment: two-hybrid library CCmax. The conditions noted are these: mean of both orientations.

Assay [31] addresses T31, 4H3939-AA.
T31 chain: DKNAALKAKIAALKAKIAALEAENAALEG
Nature of the assay: two-hybrid library CCmax. The conditions noted are these: mean of both orientations.

The target in assay [32] is T32, 4H656-AA.
T32 chain: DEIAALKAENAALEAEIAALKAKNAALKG
As to the kind of experiment: two-hybrid library CCmax.

Assay [33] concerns the target T33, 4H2742-AA.
T33 chain: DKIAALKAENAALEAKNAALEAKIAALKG
Nature of the assay: two-hybrid library CCmax. The conditions noted are these: mean of both orientations.

Assay [34] concerns the target T34, 4H189-AA.
T34 chain: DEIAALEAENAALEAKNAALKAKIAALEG
Nature of the assay: two-hybrid library CCmax. The settings on record: mean of both orientations.

Assay [35] has as its target T35, 4H3920-AA.
T35 chain: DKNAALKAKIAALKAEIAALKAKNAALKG
As to the kind of experiment: two-hybrid library CCmax. The settings on record: mean of both orientations.

The target in assay [36] is T36, 4H2248-AA.
T36 chain: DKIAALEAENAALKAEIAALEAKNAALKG
Nature of the assay: two-hybrid library CCmax.

Assay [37] addresses T37, 4H3591-AA.
T37 chain: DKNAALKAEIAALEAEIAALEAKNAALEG
As to the kind of experiment: two-hybrid library CCmax. The conditions noted are these: mean of both orientations.

In assay [38] the target is T38, 4H3446-AA.
T38 chain: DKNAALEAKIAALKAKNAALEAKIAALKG
Nature of the assay: two-hybrid library CCmax. The conditions noted are these: mean of both orientations.

Assay [39] deals with T39, 4H3628-AA.
T39 chain: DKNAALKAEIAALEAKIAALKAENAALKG
As to the kind of experiment: two-hybrid library CCmax. The settings on record: mean of both orientations.

Assay [40] deals with T40, 4H1391-AA.
T40 chain: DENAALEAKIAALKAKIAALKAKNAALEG
Nature of the assay: two-hybrid library CCmax. The conditions noted are these: mean of both orientations.

Assay [41] deals with T41, 4H2948-AA.
T41 chain: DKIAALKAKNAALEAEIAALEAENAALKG
As to the kind of experiment: two-hybrid library CCmax. The settings on record: mean of both orientations.

The target in assay [42] is T42, 4H675-AA.
T42 chain: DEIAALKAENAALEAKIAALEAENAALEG
Nature of the assay: two-hybrid library CCmax. The conditions noted are these: mean of both orientations.

Assay [43] has as its target T43, 4H497-AA.
T43 chain: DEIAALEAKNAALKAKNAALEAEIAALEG
As to the kind of experiment: two-hybrid library CCmax. The settings on record: mean of both orientations.

Assay [44] deals with T44, 4H1854-AA.
T44 chain: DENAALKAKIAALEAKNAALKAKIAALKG
Nature of the assay: two-hybrid library CCmax. The settings on record: mean of both orientations.

Assay [45] addresses T45, 4H1146-AA.
T45 chain: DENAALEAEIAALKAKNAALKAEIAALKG
Nature of the assay: two-hybrid library CCmax. The settings on record: mean of both orientations.

The target in assay [46] is T46, 4H1348-AA.
T46 chain: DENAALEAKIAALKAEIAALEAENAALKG
As to the kind of experiment: two-hybrid library CCmax. The conditions noted are these: mean of both orientations.

Assay [47] deals with T47, 4H3709-AA.
T47 chain: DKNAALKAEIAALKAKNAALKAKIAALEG
As to the kind of experiment: two-hybrid library CCmax. The settings on record: mean of both orientations.

As to DENAQLEQEIAELEQENAELEWKIAQLKQ [4H1046-bA], the interaction score is -0.392 in assay [1]; 1.98 in assay [2]; -0.435 in assay [3]; -0.535 in assay [4]; 0.103 in assay [5]; 0.412 in assay [6]. For the same molecule, the interaction score in assay [7] was 0.269; in [8], -1.17; in assay [9], -0.316; in assay [10], -0.743.

On to DEIAALKAKNAALKAKIAALEAKNAALKG [4H1000-AA], for which the interaction score in [11] is -1.04; in [12], -0.33; in assay [13], 0.468; in [14] it was 0.471; in assay [15], -1.49; in assay [16] it was -1.19. Also, the interaction score in [17] is -1.96; in [18], -0.99; in assay [19], -2.48; in [20], -0.95; in assay [21], 0.777; in [22], 1.3. For the same molecule, the interaction score was -0.226 in assay [23]; -0.42 in assay [24]; -0.524 in [25]; 0.223 in assay [26]; -0.567 in assay [27]; -0.644 in assay [28]. Also, the interaction score in assay [29] was -1.26; in [30], -0.137; in [31], -1.65; in assay [32], 0.604; in [33] it was -1.09; in assay [34] it was -0.933. Moreover, the interaction score in [35] was -1.89; in assay [36] it was -1.32; in assay [37], -0.703; in assay [38], -1.24; in assay [39], -1.21; in assay [40], -1.56. For the same molecule, the interaction score is 0.224 in [41]; 2.34 in assay [42]; -1.74 in assay [43]; -1.79 in [44]; -1.52 in assay [45]; -1.24 in [46]. In assay [47], the interaction score was -1.07.

(Values after paper PMC10397247.)
